# Test results from patent US20250136677A1 (ZOETIS SERVICES, published 2025).
# Where a chain is given by its changes, count along the chain named.
# T1: canine IL-31 protein (Canine_IL31) (canine)
# T1 chain: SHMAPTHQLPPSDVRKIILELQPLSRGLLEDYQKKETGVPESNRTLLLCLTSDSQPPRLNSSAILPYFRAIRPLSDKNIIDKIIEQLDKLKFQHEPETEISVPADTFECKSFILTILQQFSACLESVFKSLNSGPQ
# T2: wildtype feline IL-31 protein (Feline_IL31_wildtype) (feline)
# T2 chain: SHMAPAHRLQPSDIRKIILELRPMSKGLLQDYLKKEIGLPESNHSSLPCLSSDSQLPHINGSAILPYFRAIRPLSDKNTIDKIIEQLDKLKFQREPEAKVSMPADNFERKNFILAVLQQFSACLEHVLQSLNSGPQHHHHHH
# T3: mutant feline IL-31 15H05 protein (Feline_IL31_15H05_mutant) (feline)
# T3 construct: also called feline 15H05 mutant; 15H05 IL-31 mutant
# T3 chain: T2 chain with P103A, D105A
# T4: mutant feline IL-31 11E12 protein (Feline_IL31_11E12_mutant) (feline)
# T4 construct: also called feline 11E12 mutant; 11E12 IL-31 mutant
# T4 chain: T2 chain with D81A, I84A
# T5: equine IL-31 protein (Equine_IL31) (equine)
# T5 construct: Recombinant equine IL-31
# T5 chain: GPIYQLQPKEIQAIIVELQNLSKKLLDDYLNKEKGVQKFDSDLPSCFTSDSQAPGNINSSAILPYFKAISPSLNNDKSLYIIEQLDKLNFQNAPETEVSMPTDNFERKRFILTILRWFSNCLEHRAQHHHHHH
# B1: mouse anti IL-31 antibody 15H05 (antibody, mouse IgG1, kappa)
# heavy: QVQLQQSAAELARPGASVKMSCKTSGYTFTSYTIHWIKQRPGQGLEWIGNINPTSGYTENNQRFKDKTTLTVDRSSNTAYLQLHSLTSEDSAVYFCARWGFKYDGEWSFDVWGAGTTVTVSSKTTPPSVYPLAPGSAAQTNSMVTLGCLVKGYFPEPVTVTWNSGSLSSGVHTFPAVLESDLYTLSSSVTVPSSPRPSETVTCNVAHPASSTKVDKKIVPRDCGCKPCICTVPEVSSVFIFPPKPKDVLTITLTPKVTCVVVDISKDDPEVQFSWFVDDVEVHTAQTQPREEQFNSTFRSVSELPIMHQDWLNGKEFKCRVNSAAFPAPIEKTISKTKGRPKAPQVYTIPPPKEQMAKDKVSLTCMITDFFPEDITVEWQWNGQPAENYKNTQPIMNTNGSYFVYSKLNVQKSNWEAGNTFTCSVLHEGLHNHHTEKSLSHSPGK
# light: DIQMNQSPSSLSASLGDTITVTCRASQGISIWLSWYQQKPGNIPKVLINKASNLHIGVPPRFSGSGSGTHFTLTITSLQPEDIATYYCLQSQTYPLTFGGGTKLEINADAAPTVSIFPPSSEQLTSGGASVVCFLNNFYPKDINVKWKIDGSERQNGVLNSWTDQDSKDSTYSMSSTLTLTKDEYERHNSYTCEATHKTSTSPIVKSFNRNEC
# notes: Mouse hybridoma antibody, IgG1 kappa; also called Mu-15H05; MU-15H05
# Tests used:
# [1] = target: T1, canine IL-31 protein (Canine_IL31)
# [2] = target: T2, wildtype feline IL-31 protein …; experiment: cell-based or functional assay
# [3] = target: T1, canine IL-31 protein (Canine_IL31); experiment: cell-based or functional assay
# [4] = target: T2, wildtype feline IL-31 protein …; experiment: cell-based or functional assay
# [5] = target: T1, canine IL-31 protein (Canine_IL31); experiment: SPR (Biacore), IL-31 on chip, 1:1 fit
# [6] = target: T1, canine IL-31 protein (Canine_IL31); experiment: SPR (Biacore), IL-31 protein as surface capture
# [7] = target: T2, wildtype feline IL-31 protein …; experiment: indirect ELISA, IL-31 protein coated
# Method: (§1) For the indirect ELISA method, antibody binding to wildtype and feline IL-31 15H05 mutant proteins was assessed. All nine canine monoclonal antibodies (ZIL1, ZIL8, ZIL8, ZIL11, ZIL69, ZIL94, ZIL154, ZIL159, and ZIL171) were capable of binding to wildtype feline IL-31 and binding was impacted by mutations in the mAb 15H05 epitope region confirming the correct binding phenotype determined during the initial screening used to identify them. In comparison, the 11E12 antibody bound to the wild-type feline IL-31 and its binding was not impacted by the mutations in the 15H05 epitope region as evidenced by the data in FIG. 4. To confirm binding, biacore analysis was performed using canine, feline, equine, human, feline 15H05 mutant, and feline 11E12 mutant IL-31 proteins as surfaces and a single test concentration of antibody. Similar to ELISA observations, all antibodies tested bound to wildtype feline IL-31. In agreement with the data described above in this section, mouse antibodies 11E12 and 15H05 both bound to canine and feline IL-31 surfaces. Three additional antibodies where shown to have this dual binding property, ZIL69 (partial canine binding), ZIL94, and ZIL159. From this group of nine fully canine antibodies, only ZIL1 and ZIL9 cross-reacted with equine IL-31. Of note, antibody 15H05 was the only one of all assayed herein that bound to canine, feline, and equine IL-31 indicating some level of epitope conservation across the three species. In contrast, none of the antibodies described herein bound to human IL-31. Additional biacore surfaces were used to verify ELISA observations showing differential binding of antibodies to wildtype feline IL-31 and two proteins with mutations in the 15H05 (15H05 mutant) or 11E12 (11E12 mutant) epitopes. […] In agreement with the ELISA results, all fully canine antibodies were impacted by the 15H05 mutation with the exception of ZIL94, ZIL154, and ZIL171 (partially affected). Differing results can be attributed to differences in the two assay methodologies.
# [8] = target: T3, mutant feline IL-31 15H05 protein …; experiment: indirect ELISA, IL-31 protein coated
# Method: as §1
# [9] = target: T2, wildtype feline IL-31 protein …; experiment: SPR (Biacore), IL-31 on chip, 1:1 fit
# Outline: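 IL-31 was amine-coupled (NHS/EDC) to the chip at 5 μg/mL and quenched with ethanolamine, and candidate mAbs were flowed over it as analytes. Binding curves were fitted to a 1:1 model.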
# [10] = target: T2, wildtype feline IL-31 protein …; experiment: SPR (Biacore), IL-31 protein as surface capture
# Method: (§2) The affinity with which candidate mAbs bind canine and feline IL-31 was determined using surface plasmon resonance (SPR) on a Biacore system (Biocore Life Sciences (GE Healthcare), Uppsala, Sweden). To avoid affinity differences associated with differential surface preparation that can occur when immobilizing antibodies to surfaces; a strategy was employed where IL-31 was directly conjugated to the surface. Immobilization was obtained by amine coupling 5 μg/mL IL-31 using N-hydroxysuccinimide (NHS)/1-Ethyl-3-(3-dimethylaminopropyl) carbodiimide (EDC) chemistry. Chips were quenched with ethanolamine and the affinity with which all candidate mAbs bound to the immobilized IL-31 was evaluated. All curves were fit to a 1:1 model. […] Results for affinity measurements are described herein.
# (§3) Table 1 below describes the results for biacore analysis using multiple species of IL-31 protein as a surface capture.
# [11] = target: T4, mutant feline IL-31 11E12 protein …; experiment: SPR (Biacore), IL-31 protein as surface capture
# Method: as §2, §3
# [12] = target: T5, equine IL-31 protein (Equine_IL31); experiment: SPR (Biacore), IL-31 protein as surface capture
# Method: as §2, §3
# [13] = target: T3, mutant feline IL-31 15H05 protein …; experiment: SPR (Biacore), IL-31 protein as surface capture; Biacore KD of Table 1, mutant IL-31 as surface capture; weak binding, about 78 times weaker than on wildtype feline
# Method: as §2, §3
binder,measurement,setting,value
B1,"IC50, inhibition of canine IL-31-induced STAT3 phosphorylation, feline FCWF4 cells",[1],25.7 µg/mL
same,"Inhibition of IL-31 induced pSTAT3 IC50 (µg/ml), Feline IL-31 on Feline FCWF-4 cells",[2],6 µg/ml
same,"Inhibition of IL-31 induced pSTAT3 IC50 (µg/ml), Canine IL-31 on Canine DH82 cells",[3],11.2 µg/ml
same,"IC50, inhibition of feline IL-31-induced STAT3 phosphorylation, canine DH82 cells",[4],2.7 µg/mL
same,"IC50, inhibition of feline IL-31-induced STAT3 phosphorylation, feline FCWF4 cells",[4],4.26 µg/mL
same,koff,[5],6.56e-07 s⁻¹
same,kon,[5],135000 M⁻¹ s⁻¹
same,Kd,[6],0.00191 nM
same,ELISA OD,[7],1.94 OD
same,ELISA OD,[8],0.05 OD
same,Kd,[9],0.348 nM
same,koff,[9],1.69e-05 s⁻¹
same,kon,[9],48400 M⁻¹ s⁻¹
same,Kd,[10],0.306 nM
same,Kd,[11],11.5 nM
same,Kd,[12],0.306 nM
same,Kd,[13],23.9 nM
